Laboratory results from the supplement of paper PMC10567573.
± gives the standard deviation.

Test: protein stability index of a GFP-peptide fusion (GPS, HEK-293T) (PSI 1-6); higher = more stable
Settings: c terminus: a fixed tail appended
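Further: 24-mer peptide tiles fused after GFP, lentivirally expressed, FACS-sorted into six equal bins by GFP/DsRed ratio, decoded by Illumina sequencing, PSI is the read-weighted mean bin number.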

Sequence	protein stability index (treatment: DMSO)	protein stability index (treatment: MLN4924 1 uM, 8 h)
EDDGLQSAFTAAHELGHVFNMLHD [ADAMTS4]	3.77 ± 0.28	3.9 ± 0.4
EDDVSFLMKHKSRKRRLFCTMEPE [TRIM35]	3.61 ± 0.28	3.74 ± 0.19
EDFIFSHFFGDKALKKRSGKKDKH [PBXIP1]	3.82 ± 0.079	4.13 ± 0.16
EDVDTSQVLYEWEQGFSQSFTQEQ [CTNNB1]	5.03 ± 0.23	5.07 ± 0.21
EEAISVVMSGKMSVSKAQSIYGIP [LCOR]	2.69 ± 0.17	2.53 ± 0.087
EEDNVEESEEEGPWEPPVLPILTW [HDAC6]	4.33 ± 0.29	4.62 ± 0.3
EEERRRREEEERERLQKEEEKRRR [ACBD3]	5.59 ± 0.45	5.69 ± 0.12
EEGLEARGEALGLVGAQAPATEEQ [MAGEA3]	5.57 ± 0.27	5.39 ± 0.34
EEKKAKVAPPAKQAQQKKAPAKKA [BRD3]	5.45 ± 0.29	5.49 ± 0.17
EEKQRELARKGSLKNGSMGSPVNQ [FAM219A]	5.33 ± 0.097	5.35 ± 0.16
EELSVLEVFEGREDSIFGDPKKLL [MAGEA6]	4.22 ± 0.35	4.32 ± 0.28
EELTREAVAVDVAVPKRLLEIVGR [HAGHL]	3.85 ± 0.17	3.91 ± 0.38
EEWLDILGNGLLRKKTLVPGPPGS [FKBP8]	2.62 ± 0.12	2.78 ± 0.5
EEYCHKHYDRNKDGNKDVYLSLLR [VPS39]	3.23 ± 0.35	3.19 ± 0.27
EFCRNTLCAPEVISLINTRMLFWA [FAF2]	2.74 ± 0.45	2.73 ± 0.32
EFHPHHCNTFVYSSSKGTIRLCDM [PPP2R2B]	2.31 ± 0.29	2.15 ± 0.18
EFNELLSKYQLSEAQLSLIRDIRR [NFE2L1]	2.57 ± 0.22	2.82 ± 0.38
EGCGPPLRRWLRANLAASGGYAIA [TSPAN10]	1.94 ± 0.21	2.52 ± 0.3
EHFGIVPLEAMYMQCPVIAVNSGG [ALG2]	2.33 ± 0.11	2.59 ± 0.37
EICSEPVAASPAPAGERRIYRHRI [ZNF511]	4.27 ± 0.47	4.09 ± 0.26
EKCKEEFVEEIKKLATQHKQLISQ [ZMYND11]	4.2 ± 0.28	4.06 ± 1.2
EKGLPLRKTHVLLGRSHDTVQEAA [MFSD9]	4.22 ± 0.23	4.15 ± 0.34

Sequence	protein stability index (treatment: DMSO)	protein stability index (treatment: MLN4924 1 uM, 8 h)
EKLGSGEPSHSVKVHTVPKPGKGA [ATE1]	5.04 ± 0.23	5 ± 0.22
EKLSRGLRYYYDKNIIHKTSGKRY [ETS2]	2.74 ± 0.34	2.92 ± 0.2
EKSVTKDAEGLAARDVQKIIGDYF [INTS4]	2.85 ± 0.4	3.51 ± 0.12
ELANGKPQTRSGPECGLAKKPPEE [ADAMTSL2]	–	4.78 ± 0.42
ELDELLKEISRKRRSIRYGREVEL [PTPRD]	2.5 ± 0.68	2.96 ± 0.61
ELEKAHLALIDYLTQKRSQLVKKL [VPS39]	2.28 ± 0.39	2.58 ± 0.23
ELGSEVDITEGDRKPDYTAYVAMI [ATF4]	3.46 ± 0.15	3.61 ± 0.3
ELLDLSKQYDQQFPDGDDEFDSPH [STX11]	4.89 ± 0.2	4.9 ± 0.17
ELNNCISMLVAGNDRVQTIITQLE [TRIM63]	2.25 ± 0.39	2.38 ± 0.11
ELQQRNPKAERLRWSPAQEESFRQ [ZNF232]	3.3 ± 0.37	3.49 ± 0.77
ELRLYKQQVKKLEKALKKNVKLQE [CEP70]	2.8 ± 0.59	3.08 ± 0.25
EMCHKPDVELLQDLGDIVARSESV [TRIM43]	4.66 ± 0.15	4.62 ± 0.24
EMDKLRASDIMEPNLTYVYPHTRI [CLCN6]	2.58 ± 0.23	2.92 ± 0.31
ENAQIIYSLAEDTIQGVPLSSYIS [PCDHGA10]	2.51 ± 0.41	2.82 ± 0.43
ENEQRRLFIQKEEQLQQILKRKNK [MNAT1]	4.38 ± 0.18	4.21 ± 0.2
ENKESWDKILALVPETIHDELQQS [PRIM1]	4.82 ± 0.3	4.72 ± 0.39
ENPDLQEAYIAKQKRLKSKLLDHD [GDAP1]	4.53 ± 0.11	4.67 ± 0.15
EPASESVVGALPAEHQFSFMEKRN [TRAF3IP2]	4.71 ± 0.26	4.98 ± 0.27
EPGRLGSSSPASVTTEQLGAKMTE [PXN]	5.2 ± 0.46	5.23 ± 0.24
EPQPFVTSDVYSSDAAFGGILERY [MYORG]	3.79 ± 0.095	3.87 ± 0.058
EPTAAATARRSKRERREEDRAPAE [PWWP2B]	5.7 ± 0.095	5.45 ± 0.14
EPWLPLTDGRSPRRSRDPGYDHLW [PLEKHN1]	3.68 ± 0.14	3.57 ± 0.26

Sequence	protein stability index (treatment: DMSO)	protein stability index (treatment: MLN4924 1 uM, 8 h)
EPYGHLNPKWTKWLQKLCCPCCFG [PI4K2A]	3.33 ± 0.33	3.37 ± 0.21
EQGLSALHLAAQGRHAQTVETLLR [RIPK4]	3.71 ± 0.55	4.12 ± 0.23
EQHISKCKKAFREGSRKSSRVKGS [KMT2E]	4.59 ± 0.26	4.63 ± 0.25
EQLIEAINNGDFEAYTKICDPGLT [CAMK2D]	4.06 ± 0.34	4.1 ± 0.23
EQLREALHEALLEYEAGRAGPGGG [ESRRA]	3.92 ± 0.27	4.05 ± 0.39
EQQQILIRQLQEQHYQQYMQQLYQ [ACBD3]	2.2 ± 0.38	2.24 ± 0.3
EQRANDLEQIMESVKSKIGELEDE [CEP70]	5.41 ± 0.098	5.39 ± 0.18
EQVANKGEPLALPLDAGEYCVPRG [BEX1]	4.86 ± 0.29	4.79 ± 0.27
ERDLQELSIQVEEERRAREWLLDA [ZMAT5]	4.54 ± 0.092	4.95 ± 0.32
ERHCHLYTFHARFGEVRPYFYLGG [TRIM35]	2.61 ± 0.49	2.6 ± 0.52
ERLAKNLVEKGVLTTEKQNFLLFD [GOLPH3]	3.16 ± 0.52	3.43 ± 0.34
ERRGTPADTEEPTKDPDVAFHGLS [PSD2]	5.38 ± 0.42	5.38 ± 0.17
ERTYSANCSDFLESKGCFANTTPS [SPATS1]	3.67 ± 0.14	3.56 ± 0.18
ESEFDIEDEDKSEPEQTGADAAED [RBBP5]	5.73 ± 0.18	5.826 ± 0.029
ESIQRIAVHLCNALVCQVDNDHKE [ZER1]	2.81 ± 0.63	2.64 ± 0.36
ESLLAPLNVELDPEIQKVRAQERE [KRT71]	5.54 ± 0.44	5.48 ± 0.2
ESQASRKEEGLPEEEPSHVTGREG [ZNF8]	5.62 ± 0.1	5.59 ± 0.2
ESSVPSTVGCSSQHTPDQANSDRA [PLEKHN1]	5.42 ± 0.2	5.61 ± 0.16
ETLLGDPKRRMRYFDPLRNEYFFD [KCNA3]	2.58 ± 0.37	2.79 ± 0.29
ETPEWLDSDSCQKCDQPFFWNFKQ [WDFY2]	2.94 ± 0.29	3.19 ± 0.11
ETTEAIDDEGWLHSGDLGQLDGLG [ACSBG2]	5.23 ± 0.25	5.15 ± 0.21
